Test results from publication PMC3664666 (Science signaling, 2012).
Changes are numbered by the printed parent chain. Numbers in names are those of the source.

T1: phosphorylated Mt-MviN KHD 681-963 (M. tuberculosis, UniProt P9WJK2 681-963, phosphothreonine at 947)
T1 sequence: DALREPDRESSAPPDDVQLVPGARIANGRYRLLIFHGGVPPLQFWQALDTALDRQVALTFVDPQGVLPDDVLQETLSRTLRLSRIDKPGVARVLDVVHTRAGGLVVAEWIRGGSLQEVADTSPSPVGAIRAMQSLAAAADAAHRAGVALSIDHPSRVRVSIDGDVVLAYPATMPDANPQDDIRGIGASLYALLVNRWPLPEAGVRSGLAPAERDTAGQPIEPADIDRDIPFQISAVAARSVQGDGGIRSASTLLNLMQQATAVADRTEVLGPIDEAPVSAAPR

B1: FhaA FHA domain Q461A (domain or fragment)
chain: PQGGGYAEPAGRDYDYGQSGAPDYGQPAPGGYSGYGQGGYGSAGTSVTLQLDDGSGRTYQLREGSNIIGRGADAQFRLPDTGVSRRHLEIRWDGQVALLADLNSTNGTTVNNAPVQEWQLADGDVIRLGHSEIIVR
B2: FhaA FHA domain R474A (domain or fragment)
chain: B1 chain with A72Q, R85A
B3: FhaA FHA domain R459A (domain or fragment)
chain: B1 chain with R70A, A72Q

Biological target: T1, phosphorylated Mt-MviN KHD 681-963
Test: ITC

Row | Binder | binding result | fold reduction of the binding affinity against the wild type
1 | B1 | binds | –
2 | B2 | – | 41 fold
3 | B3 | – | > 170 fold
